Assay: folding stability dG unfold (combined trypsin and chymotrypsin); higher = more stable
Description: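 Folding stability of de novo designed mini-proteins (<80 aa, no Cys; designed by TrROS, TrMRF, ProteinMPNN and the joint model) was measured by cDNA display proteolysis with trypsin and chymotrypsin. Each protease was used at 11 concentrations in a threefold dilution series plus a no-protease condition. K50 was inferred by Bayesian fitting of sequencing counts, and dG unfold was derived against a sequence-predicted unfolded-state K50 (Tsuboyama et al. method). Sequences shown include variable-length N-terminal GS-type padding (SAGGSAGG...) inside a display construct carrying a PA tag. Rows were kept only if the AF2 dimer inter-PAE was >15, to exclude likely homo-oligomers.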

Sequence	folding stability dG unfold [kcal/mol]
SAGGSAGGSAGGGVRIKVEYPNNGQPHEFPIDENWTAESIKDKLEDRGLPPNHKITKIEPSAGGSAGGSAGG [r7_70_TrROS]	< -1
SAGGSAGGMITDADGNAFEVASAEPFELANGEPVIRFRFKGSGEIRTVPAADIPDGIPEEAKFESAGGSAGG [r6_370_TrMRF]	< -1
SAGGSAGGSARDALKNIKHVEIEHNPPNNRGTIRIQPPNGKQIKFEFDSPNELLKKAGIEPSAGGSAGGSAG [r3_36_TrROS]	< -1
SAGGSAGGSAGGGHMIYVPPSATLEEAEKLAKELGIEDAEIIPVPEGEPLFFTPEWKLVSAGGSAGGSAGGS [r10_1083_JUSTAS]	< -1
SAGGSAGGPPVVTKTDPNTGAVYTKVGDTWTSTPVPPPVVVRPVPLYDPDGRPLATGYTVLRLESAGGSAGG [r6_313_JUSTAS]	< -1
SAGGSAGGSAGMPFKITKVTPDGKITIYDGGNPITIPPGSDHIKIEFGGGTKEIKIPPGMSAGGSAGGSAGG [r11_647_TrROS]	< -1
SAGPPEPITWKIRNPKNGKKRKIQIWQPDEQMAVQIRDPNDGKPRREIPMPLEEARDLLKSDGFEVEPVSAG [r5_291_TrROS]	< -1
SAGGSAGGSAGGSMVAYITTKGKKLEIEVPEDLPEEIKEELKKKGIPIESITFEEVEPESAGGSAGGSAGGS [r10_405_JUSTAS]	< -1
SAGGSAGGSAGRMYIIRNPGKKVIIPRGWMPKLQKKNPNVEIEEFESPEDADKAQDKALDSAGGSAGGSAGG [r11_60_TrROS]	< -1
SAGGSGMNITVEPVLSPDGTLTVTTTDPATGKTVSTTTTPVPRGPLPPPVRPLLGLDDRNGRPLLLSAGGSA [r2_78_JUSTAS]	< -1
SAGGSAGGDNKPLRVRIRSPANGQKMKFKIKPDKIEPGKTIEIKHGDKPHTFNINPAQIDELEPSAGGSAGG [r6_461_TrROS]	< -1
SAGGSPVLVPLEREETDPARGTRTRTRAYRLPERDIALVEREEIPFAPDGTPLRRTSEEVVSLEELLESAGG [r13_807_JUSTAS]	< -1
SAGGSAGGSAGPEVRPAPTPDGREVWVLRRTRRHPGPGDGVVVEEEVVPADDPEALRRRASAGGSAGGSAGG [r11_967_TrMRF]	< -1
SAGGRGPGLPVSERKIVETRDLDPDEVSEEEIAERIKEENPDAVVEELEVDTKESKAVFKIKVKKLESAGGS [r8_202_JUSTAS]	< -1
SAGGSAGGSAGTEISLPSSLPDRPIETVPVEIVSPGPGDPRRETINVTRTPDRVLAVDRRSAGGSAGGSAGG [r11_21_JUSTAS]	< -1
SAGGSAGGNTITLPLPDGRKLTIDMHPNPDGNMYVNIDVQTPGKEKEITVPMDNPAIREAVKELSAGGSAGG [r6_607_TrROS]	< -1
SAGGSAGGSAYKLKDITMRRMPNGYHEVEIKVDNGKKIDVTIPPDNPGRSIEEFAKEVLDNSAGGSAGGSAG [r3_368_TrROS]	< -1
SAGGSASSIPPGKILSKKEFEVELPDGKKLKITILEVPGPTLALTEEPGEKKPKTYKVEELKKLLESAGGSA [r15_329_JUSTAS]	< -1
SAGGSAGGSGSMNISPNVKKFTIKSTGTEEKAKEEAEKIKNSLPKNVPIEITFEPLDPKEFKKSAGGSAGGS [r12_744_JUSTAS]	< -1

Sequence	folding stability dG unfold [kcal/mol]
SAGGSAGGSAGGSQNEVQIPFNNMPPQQARNIADEALDKNKDIENIEVERDDGMFKVKVSAGGSAGGSAGGS [r4_330_TrROS]	< -1
SAGGMTSEVIETTEEEPERLIKKTFKVTYDENGTPKPELLKVETSPVPEEEIDPSNAPKEKAEKLGLLSAGG [r13_964_JUSTAS]	< -1
SAGGSAGGSKMTVRIDEVHTHKHDGRRYLSVPLRFPDNGKPIDFHIPPDDLKNLKPGEEITIESAGGSAGGS [r12_382_TrROS]	< -1
SDPQQLPPELIDNIAKEFPHIKAIEIQPHPPGMVHVDAEYRDDGKEKRVEFQIPNPNGNTHQFEIEIRKPSA [r9_678_TrROS]	< -1
SAGGSMTVKEFTDPEEVEKAVEEMDSNEVAVMPVPERPVERVFTKINDKVIRETINGETVTTEELLSAGGSA [r2_280_JUSTAS]	< -1
SAGGSAGGSAGGMRISIHHPKNGNPRHIPIDDIRNLPGPYKIHVEGPNPELAKEFLEQFSAGGSAGGSAGGS [r10_419_TrROS]	< -1
SAGGSAGGSAGGSGNFTIDPALLEEARAEAAAAGEALETIPLKVTRPGGETKTIDIKVGSAGGSAGGSAGGS [r4_367_JUSTAS]	< -1
SAGGSAGGSAEEISPEGVATRTLPDGRTVELTQDPAKGTVTTTVYTPSGTPVSSSTTPVNPSAGGSAGGSAG [r3_447_JUSTAS]	< -1
SAGGSAGGSAGPKPVMWRIEFDNPDNGQKQEITIMIPPDDPEQAEEIAKKIGPNVKIEPVSAGGSAGGSAGG [r11_250_TrROS]	< -1
SAGGEGEELIIPSSFPLEKIEELEKAHPDAKAEIVEINLRGPVLLPGGGVRPVPSFLKVRLYRREERSAGGS [r8_172_TrMRF]	< -1
SAGGSAGGSMVVTTTEFDLNGVKATLSIDDTGSATAKIPDPSYKEDVLKLIPSSFSLTSFDAESAGGSAGGS [r12_9_JUSTAS]	< -1
SAGMSTSSPTAKSTVLETSEEGNTVTKKVKVTTPSKDSSGNSSTTTTTTTITTELKGKPEPKTPEYYAKSAG [r5_70_JUSTAS]	< -1
SAGGSAGGSKLPDGPYKIRMPHNGRPYEMPIRVTSDGMIEVRMPGEGKKRTFPLNQAEIEPLDSAGGSAGGS [r12_782_TrROS]	< -1
SAGGSARWMEYQIPFKSPQKREKLKEALMEHPGISEVDWPPNGTINITIPRDNPNRIKKAAKKAGFSAGGSA [r15_834_TrROS]	< -1
SAGGSAGGSAGSMTVLEEEEIELPDDVVLTRLKVPGEELIRIEIPEEGKEEIIPASEWPGSAGGSAGGSAGG [r17_286_JUSTAS]	< -1
SAGGSAGGSAGMTTYEGTDPEELREAVEAEAKARGVEIEITSVTTSPDGKYTLDVKVTPPSAGGSAGGSAGG [r11_304_JUSTAS]	< -1
SAGGSAGGSAGGPPFQIHIRDKGEERTIPVDSPDDIKELLEEKGAEIKDVHPNSGTITVKSAGGSAGGSAGG [r7_726_TrROS]	< -1
SAGGSAGGSAGGMVSISVSEDPATGTYTVTATRTGAPRTVTVPVGASEAEARARVEAALSAGGSAGGSAGGS [r10_192_JUSTAS]	< -1
SAGGSAGGSAGGEPEPIPFRIKPHDEDGKKKGTFPINPLQKKGIPAEEFADKNGFEIEISAGGSAGGSAGGS [r10_153_TrROS]	< -1

Sequence	folding stability dG unfold [kcal/mol]
SAGGSAGGSAGGSPMLLVRVKKTNKWISLEEALEEAEKKGEEIEIEEVEVVELPPGQEPSAGGSAGGSAGGS [r4_479_TrROS_Hall]	< -1
SAGGMEEIAEKLPVTKIETLEVDPEPPVVKVKLTLKDESGTEKEIELTIELPPEPLPVPKFPPERILLSAGG [r13_608_JUSTAS]	< -1
SVRPDEPVRITVRFPARPVTRYRARPTGPFLGAEPVPVPSATLTLTVPAADLEAVLDALRPLGVEVEVDPSA [r9_167_TrMRF]	< -1
PINPEIAEKLKVAIANKLKEAGYKVKSVSISPLPDGTISGKVGDKTVTLPLPNGGTAGISVEAEKVSPEEAS [r1_31_TrMRF]	< -1
SAGGSAGGSAGGSGNGMKLVKKKEVVKEEGAVVKLPNGETIEVPPDETITVEIEEEVSLSAGGSAGGSAGGS [r4_26_JUSTAS]	< -1
SAGGSAGGPKPAKIKEVPFKMRHPGNGQPHKMEIKEVRPDGMIEIDFPNGEEHRIPGMKIDEIESAGGSAGG [r6_435_TrROS]	< -1
SAGGSWIEKLPPDYTILLEKPDGTPFTRKIPANASEEEVLALNPPGSSKIELVSLDPSGRAVWRTPGSAGGS [r16_103_JUSTAS]	< -1
SAGGSAGGSAGSMVLESEEPIPETGEPVLVKTTLSEEPGRERTIVTTYRDGKPLSTTVELSAGGSAGGSAGG [r11_631_JUSTAS]	< -1
SAGGSAGGSAGGGMTVEEDPSSNIVTERIEYPDSIVTITRKRTPNPSWVTLATTTTPLGSAGGSAGGSAGGS [r10_840_JUSTAS]	< -1
SAGGSAGGSAGVKPGQTIEVPGAKITVEEVDGKLVLKVEELPPPPAPEVEVKRYVSEEDLSAGGSAGGSAGG [r11_534_TrROS_Hall]	< -1
SAGGSAGGSAGGGFEITLPDKPIKVLEARFIPEKKLVEVLAEHPDGVLVRGVFPPELKLGSAGGSAGGSAGG [r7_427_TrMRF]	< -1
SAGGSAGGSFEVEPTPDHVSIRYYNPDGNPPVSATVDPPEGDIDFEHPDKKQEFPLKPGDTLISAGGSAGGS [r12_536_TrROS]	< -1
SAGMFYVLKTKRPTPSAPPEVLAADPNAEVETEYKLSPDTSEEEIKKIKEELKNKGWKEVKLVPISELKSAG [r5_60_JUSTAS]	< -1
SVVTPYPDGTVVETEPVGDTVLRLVRRPRPLPGGEPVERTTVVLEPVSTRPLPNGELVTERPVLEEEHHHSA [r9_235_JUSTAS]	< -1
SAGGSLEEIADELAQKPGFDEVKIDVWKPPNGNFMLSVHNKENNRELQIPLPPNWKPVGTYELPVKSAGGSA [r2_74_TrROS]	< -1
SAGGSAGGSAEELAKKLAEELGVKVEVEEKDGKLVVKIEKKKAKPKPKKVEKKKYYSEEELKSAGGSAGGSA [r18_27_TrROS_Hall]	< -1
SAMVKTKDGKELEITRKAKPDELTEEEIKALAEEEVKKLVPEDLEVEVEVEISREPDGTYVVSVPVKKKSAG [r14_389_JUSTAS]	< -1
SAGGSAGGSAKIKVEWEQHPEGYNLVKVEIPNPDNGKKKKVEGPFDSLEDAEDEAKELLKKSAGGSAGGSAG [r3_174_TrROS]	< -1
SAGGSAGGAEAVEAAKAKLPPDEERTVVVPDPDDPSRVTTYTLTARGDEVEVPVTTEPVPPGLESAGGSAGG [r6_393_JUSTAS]	< -1

From the supplement of paper PMC12764529
